Test results as given in US8394770B2 (priority 2007, dated 2013).
Like-named read-outs stand apart in the source and are kept apart here. Positions of bridges follow the written chain, without caps; N, C: chain ends. No end group written: not given here.

Assays:
DP-BB/W rats = settings: repeated daily administration, assayed at 110 days of age, vs vehicle; cited from earlier work
[1] = electrophysiological experiments; cited from earlier work
rat brain synaptosomes = settings: binding to rat brain synaptosomes; cited from earlier work
hKv1.2 [2] = molecular target: T1, hKv1.2 (Homo sapiens, UniProt P16389); experiment: Patch-clamp block of hKv1.2 channels expressed in Cos-7 cells
T1 sequence (P16389 whole entry): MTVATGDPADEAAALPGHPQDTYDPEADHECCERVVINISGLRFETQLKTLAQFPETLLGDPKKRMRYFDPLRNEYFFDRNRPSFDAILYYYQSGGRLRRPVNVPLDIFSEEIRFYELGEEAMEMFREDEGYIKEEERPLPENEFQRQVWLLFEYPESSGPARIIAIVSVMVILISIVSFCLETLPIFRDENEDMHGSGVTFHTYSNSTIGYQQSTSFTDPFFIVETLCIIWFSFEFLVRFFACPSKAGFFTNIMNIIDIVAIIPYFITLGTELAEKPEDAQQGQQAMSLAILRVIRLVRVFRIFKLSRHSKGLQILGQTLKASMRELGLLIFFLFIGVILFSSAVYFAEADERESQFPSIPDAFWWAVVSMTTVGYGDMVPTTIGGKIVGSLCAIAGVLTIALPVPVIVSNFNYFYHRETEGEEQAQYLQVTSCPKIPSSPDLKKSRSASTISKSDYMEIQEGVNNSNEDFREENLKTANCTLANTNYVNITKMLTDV

mKv1.1 = mKv1.1 (Mus musculus, UniProt P16388); experiment: Patch-clamp block of mKv1.1 channels stably expressed in L929 cells; settings: 10 nM
Sequence of mKv1.1 (P16388 whole entry): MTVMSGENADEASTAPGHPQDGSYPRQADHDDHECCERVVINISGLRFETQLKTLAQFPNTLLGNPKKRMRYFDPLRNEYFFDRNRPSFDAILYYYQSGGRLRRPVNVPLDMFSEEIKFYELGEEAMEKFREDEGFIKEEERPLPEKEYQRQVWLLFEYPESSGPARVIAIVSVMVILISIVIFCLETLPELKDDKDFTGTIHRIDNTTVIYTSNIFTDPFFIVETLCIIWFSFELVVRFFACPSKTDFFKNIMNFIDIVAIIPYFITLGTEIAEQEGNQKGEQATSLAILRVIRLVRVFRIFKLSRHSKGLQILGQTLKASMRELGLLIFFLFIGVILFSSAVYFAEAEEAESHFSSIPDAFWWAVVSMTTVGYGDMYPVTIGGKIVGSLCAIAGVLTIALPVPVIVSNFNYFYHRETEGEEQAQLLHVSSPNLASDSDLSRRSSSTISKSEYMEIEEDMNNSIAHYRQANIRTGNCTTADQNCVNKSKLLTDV

hKv1.3 channels [3] = molecular target: T2, hKv1.3 channels (Homo sapiens, UniProt P22001); experiment: Whole-cell patch-clamp block of hKv1.3 channels endogenously expressed in human peripheral blood T cells; assay type: cell-based; set-up: channels expressed endogenously in human peripheral blood T cells; endogenous in cells; host or cells: human peripheral blood T lymphocytes from healthy volunteers, PHA-stimulated
T2 sequence (P22001 whole entry): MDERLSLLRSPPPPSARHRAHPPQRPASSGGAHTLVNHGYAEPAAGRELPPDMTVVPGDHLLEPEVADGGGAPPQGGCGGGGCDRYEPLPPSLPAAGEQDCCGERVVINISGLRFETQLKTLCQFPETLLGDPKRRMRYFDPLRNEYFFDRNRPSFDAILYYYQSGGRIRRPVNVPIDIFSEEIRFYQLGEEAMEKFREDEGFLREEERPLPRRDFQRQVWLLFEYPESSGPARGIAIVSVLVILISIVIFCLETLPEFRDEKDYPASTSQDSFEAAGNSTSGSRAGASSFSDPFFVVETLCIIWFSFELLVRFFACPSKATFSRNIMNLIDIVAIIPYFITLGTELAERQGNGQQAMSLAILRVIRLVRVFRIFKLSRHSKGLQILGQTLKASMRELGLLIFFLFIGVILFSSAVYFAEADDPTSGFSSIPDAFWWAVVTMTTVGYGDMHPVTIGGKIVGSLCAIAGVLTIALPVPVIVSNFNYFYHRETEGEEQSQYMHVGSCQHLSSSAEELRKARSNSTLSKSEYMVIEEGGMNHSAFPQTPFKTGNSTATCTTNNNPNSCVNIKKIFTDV

mice = experiment: In vivo toxicity / lethality test by injection into mice; settings: injected, up to 10,000 microgram per 20 gram mouse weight (so in the source)
hIKCa1 = hIKCa1 (Homo sapiens, UniProt O15554); experiment: Patch-clamp block of recombinant hIKCa1 channels expressed in Cos-7 cells (voltage ramps); settings: 10 nM
Sequence of hIKCa1 (O15554 whole entry): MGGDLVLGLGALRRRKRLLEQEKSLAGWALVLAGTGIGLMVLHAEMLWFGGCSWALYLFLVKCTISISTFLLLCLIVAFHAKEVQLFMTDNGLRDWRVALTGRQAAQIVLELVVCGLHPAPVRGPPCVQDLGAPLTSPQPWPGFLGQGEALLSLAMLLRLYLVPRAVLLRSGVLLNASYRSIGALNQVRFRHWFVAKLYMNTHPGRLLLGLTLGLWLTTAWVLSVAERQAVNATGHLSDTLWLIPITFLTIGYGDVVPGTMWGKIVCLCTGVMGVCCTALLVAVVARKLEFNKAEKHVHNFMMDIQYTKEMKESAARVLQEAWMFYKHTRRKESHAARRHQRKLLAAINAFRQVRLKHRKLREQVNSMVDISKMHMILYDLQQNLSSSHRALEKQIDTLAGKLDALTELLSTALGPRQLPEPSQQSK
Procedure: The current carried by IKCa1 channels can be measured using a pipette filling solution having 1 μM free Ca^2+ concentration, which is sufficient to fully activate these channels [Grissmer et al., 1993].
Cos-7 cells were maintained in standard cell culturing conditions [Bagdany at al, 2005]. […] The normal extracellular solution is the same as described above. […] This solution contained 1 μM free Ca^2+ concentration to fully activate the hIKCa1 current. All other recording conditions (data acquisition, perfusion etc.) were identical to the description above for Kv1.3 channels.
Two hundred millisecond-long voltage ramps from −120 mV to +50 mV from a holding potential of −120 mV were used to elicit hIKCa1 currents in Cos-7 cells (ramp speed 0.85 mV/ms). Voltage ramps were run every 10 s. […] The reversal potential of the current is −75 mV, which is characteristic to a K^+ conductance based on the ionic composition of the recording solutions. For IKCa1 currents the slope (s) of the linear current-voltage relationship can be used to characterize the current block [Grissmer et al., 1993]. […] Error bars indicate SEM for n=3 independent experiments.

hKv1.3 channels [4] = molecular target: T2, hKv1.3 channels
hKv1.3 channel [5] = molecular target: T3, hKv1.3 channel (human, UniProt P22001); experiment: patch clamp on human lymphocytes (summary of the result)
[6] = molecular target: hIKCa1 channel (EGFP-tagged) (human) (UniProt O15554); experiment: ratio of Kd values from patch clamp, reference hKv1.3
Sequence of hIKCa1 channel (EGFP-tagged) (human) (O15554 whole entry): as above

hKv1.3 channel [7] = molecular target: T3, hKv1.3 channel
mKv1.1 channel = mKv1.1 channel (Mus musculus (Mouse), UniProt P16388); experiment: ratio of Kd values from patch clamp, reference hKv1.3
hKv1.2 channel = hKv1.2 channel (human, UniProt P16389); experiment: as above
hKv1.3 channel [8] = molecular target: T3, hKv1.3 channel; experiment: whole-cell patch clamp; recovery of hKv1.3 current on wash-out after 3 pM Vm24
hKv1.3 channels [9] = molecular target: T2, hKv1.3 channels; remark: listed apart in the source
[10] = molecular target: mKv1.1 channel (Mus musculus (Mouse)) (UniProt P16388)
Sequence of mKv1.1 channel (Mus musculus (Mouse)) (P16388 whole entry): as the sequence (P16388 whole entry) above

hKv1.2 [11] = molecular target: T1, hKv1.2

In the case of `O=c1ccc2c(OCCCCOc3ccccc3)c3ccoc3cc2o1` [PAP-1], the “reduction of the fraction of rats showing symptoms of EAD” value (DP-BB/W rats) is given as about 50%.

For “HsTx1: toxin of the scorpion Heterometrus spinnifer, SEQ ID NO: 6”, the “potency of amidated form relative to free-carboxyl-terminal form” value [1] is given as 5 fold and the “activity of amidated form relative to free-carboxyl-terminal form” value (rat brain synaptosomes) is given as “up to 300 fold”.

For “Vm23: 35 amino acid peptide from V. mexicanus venom, SEQ ID NO:1, four disulfide bridges, 83% identical to Vm24 (AAAISCVGSKECLPKCKAQGCKSGKCMNKKCKCYC; not fully specified (bridges); also: four disulfide bridges (pairing not given here))”, the “current inhibition hKv1.2” value (hKv1.2 [2]; 10 nM) was about 9%, the “time for equilibrium block of hKv1.2 to develop” value (hKv1.2 [2]; 10 nM) was 3.5 min and the “remaining current fraction (RCF) hKv1.2” value (hKv1.2 [2]; 10 nM, n=3) was 0.91±0.02. For the same molecule, the “reversibility of hKv1.2 block” value (hKv1.2 [2]; after 10 nM, wash-out) was “not readily reversible within 2 min”, the “block of mKv1.1” value (mKv1.1) was “practically does not block” and the “current inhibition mKv1.1” value (mKv1.1) was about 3%. The “blockage of hKv1.3 current” value (hKv1.3 channels [3]; 10 nM) was “approximately 95%”, the “time for equilibrium block of hKv1.3 to develop” value (hKv1.3 channels [3]; 10 nM) was 3.5 min and the “block of hKv1.3 current (words)” value (hKv1.3 channels [3]; 10 nM, within 3.5 min) was “almost completely disappeared”. The “relief of hKv1.3 block on wash-out” value (hKv1.3 channels [3]; after 10 nM, within 2 minutes) was “did not result in a significant relief”, the “toxicity in experimental animals” value (mice) was “not toxic” and the “block of hIKCa1” value (hIKCa1) was “practically does not block”. For the same molecule, the “current inhibition hIKCa1” value (hIKCa1) was about 1%.

In the case of “sVm24: chemically synthesized, correctly folded Vm24; primary sequence identical to the natural peptide (AAAISCVGSPECPPKCRAQGCKNGKCMNRKCKCYYC-NH2; not fully specified (bridges); also: disulfide pairing as native peptide (not given here))”, the “block of hKv1.3 current” value (hKv1.3 channels [3]; 100 pM) is reported as over 90%, the “block of hKv1.3 current (words)” value (hKv1.3 channels [3]; 100 pM) is reported as “almost completely disappeared” and the “potency in blocking hKv1.3 compared with natural toxin” value (hKv1.3 channels [3]; RCF at 100 pM, t-test p=0.57) is reported as “as potent as the natural toxin”.

B1: Vm23 (peptide)
peptide: AAAISCVGSKECLPKCKAQGCKSGKCMNKKCKCYC-OH
modifications: disulfide (positions not given here); also: four disulfide bridges, pairing not given here (assumed as in Vm24)
B1 gave a blockage of the current at 10 nM Vm23 (hKv1.3 channels [4]) of 95%.

B2: Vm24 (peptide)
peptide: AAAISCVGSPECPPKCRAQGCKNGKCMNRKCKCYYC-NH2
modifications: disulfide 12-31, 16-33, 21-36, 6-26; N-terminus assumed
SMILES: CC[C@H](C)[C@H](NC(=O)[C@H](C)NC(=O)[C@H](C)NC(=O)[C@H](C)N)C(=O)N[C@@H](CO)C(=O)N[C@H]1CSSC[C@@H]2NC(=O)[C@H](CCCCN)NC(=O)CNC(=O)[C@H](CC(N)=O)NC(=O)[C@H](CCCCN)NC(=O)[C@@H]3CSSC[C@@H](C(N)=O)NC(=O)[C@H](Cc4ccc(O)cc4)NC(=O)[C@H](Cc4ccc(O)cc4)NC(=O)[C@@H]4CSSC[C@H](NC(=O)[C@H](CCCCN)NC(=O)[C@@H]5CCCN5C(=O)[C@@H]5CCCN5C(=O)[C@H](CSSC[C@H](NC(=O)[C@H](CCCCN)NC(=O)[C@H](CCCNC(=N)N)NC(=O)[C@H](CC(N)=O)NC(=O)[C@H](CCSC)NC2=O)C(=O)N[C@@H](CCCCN)C(=O)N4)NC(=O)[C@H](CCC(=O)O)NC(=O)[C@@H]2CCCN2C(=O)[C@H](CO)NC(=O)CNC(=O)[C@H](C(C)C)NC1=O)C(=O)N[C@@H](CCCNC(=N)N)C(=O)N[C@@H](C)C(=O)N[C@@H](CCC(N)=O)C(=O)NCC(=O)N3
For B2, the Kd (hKv1.3 channel [5]) was under 3 pM, the selectivity for hKv1.3 over hIKCa1 [6] was over 4500 fold and the Kd (hKv1.3 channel [7]) was 2.9 pM. For the same molecule, the “selectivity for hKv1.3 over mKv1.1” value (mKv1.1 channel) was at least 10000 fold, the “selectivity for hKv1.3 over hKv1.2” value (hKv1.2 channel) was at least 1500 fold and the koff (hKv1.3 channel [8]) was about 0.00026 s⁻¹. The remaining current fraction (RCF) of whole-cell hKv1.3 current at 10 nM Vm24 (hKv1.3 channels [9]) was 0.01 RCF, the remaining current fraction (RCF) at 10 nM Vm24 [10] was 0.8 RCF and the remaining current fraction (RCF) at 10 nM Vm24 (hKv1.2 [11]) was 0.54 RCF.
